Measured values taken from the DeepSol protein solubility set.

Assay: soluble on expression in E. coli; label from the status in PepcDB or PDB records

| Sequence | soluble on expression in E. coli |
| --- | --- |
| DHLHVIGDIYDRGPAPDKIMDRLMSYHSLDIQLGNHDMIWLAAYSGSLACLANVVRICARYGNLDLLEERYAIDLTALKKFSLETYKENPAFAPKKNPYRALTEAEKQVAMRVQQAIAIIQEKLEGQIIGRRPDFNLAHRLRLDKIQGETITFDECRYTLINSCFQTVSEEQPYQLTREEKQIIDDLLTQFQSSPRLTKHMRFLMEKASLYLVYNQNLLIHGCLPLNADGTFQAYTFKGHSYSGKALVDFFQEMLEEAYAQPASTDDYATDCLWYLWCGEGSSLFGKRAMKTFERYFLAEKETHYEEKNPYYSLRDTVEVCERILDEFEVTGENRHIINGHTPVKRTKGESPIKANGTLLVIDGGFSKSYQTITGIAGYTLLYNS | not soluble |
| MSLNALKREDAANKKLGVLIYENVQPMDVIGPWEVFATWKTILDASIDMFLVAESSNEVCCANQISLKPHCEFNNSPQFDYLLVPGGAGRREQVNNPRLISFLKKQAQNTDYLLSVCTGAFLLHAAGLLTHHEATTYWRAMPELKSFEDVQLVEKRIVKSGKVWTTGGISSGIDLAFEFISTIAGNDVAGKIQLLFEYFPECKLYSQPAMVSELPSYYATKKDEAVLEMNLPDYIKEYFKKSEGHHHHHH | soluble |
| MTGATGFIGKYIIDNLLARGFHVRALTRTARAHVNDNLTWVRGSLEDTHSLSELVAGASVVVHCAGQVRGHKEEIFTRCNVDGSLRLMQAAKESGFCQRFLFISSLAARHPELSWYAKSKYVAEQRLAAMADEITLGVFRPTAVYGPGDKELKPLFDWMLRGLLPRLGAPDTQLSFLHVTDFAQAVGQWLSAETVQTQTYELCDGVAGGYDWQRVRQLAAKARCGSVRMVDIPLPVLTGLADISTALSRLAGKEPMLTRSKIRELTHADWSASNNRISEDINWFPGISLEHALRNGLF | not soluble |
| MAAKKDYYAILGVPRNATQEEIKRAYKRLARQYHPDVNKSPEAEEKFKEINEAYAVLSDPEKRRIYDTYGTTEAPPPPPPGGYDFSGFDVEDFSEFFQELFGPGLFGGFGRRSRKGRDLRAELPLTLEEAFHGGERVVEVAGRRVSVRIPPGVREGSVIRVPGMGGQGNPPGDLLLVVRLLPHPVFRLEGQDLYATLDVPAPIAVVGGKVRAMTLEGPVEVAVPPRTQAGRKLRLKGKGFPGPAGRGDLYLEVRITIPERLTPEEEALWKKLAEAYYARA | soluble |
| CKYEGDAQKRLAIRPFPAEFVETVTLRDGQPILLRPILPEDEPLHAQFINSVSKEDLYKRFFSEVGEFNHEALANFTQIDYDREMAFVAVAFDKSGPSIIGVARALITPDNSDAEFAILVRSDLKGKGLGKILMEKIISYCKIKGTKQMSGMTMPTNRGMLMLAQRLGFEVDVQFADGTADMVLPLN | not soluble |
| TDIAGLTIEHVTGDYLNGFRIIPDNIKYKGVIVTFGGSDGTPAYEQAVQLAQEGYQVLALFFFGMPNQHPTLAEVPVEYYQEIESYISQHFSQPDKITVIGTSKGAEYALLLASLYDSIDNVVLYAPSSHIYAGLDFRNYSSSWSQNGKALPYLDVRSENSLKLFYNFLIKTPISYYHTYKQALDKDKNSEDKRIKVEKTKANILIFAGENDRMWPSAESARLIEKYQPNHTQVTIYKEAGHLFAGDGI | not soluble |
| MGHHHHHHSHNSSSCPEIQGFLHVKELGKKSWKKLYVCLRRSGLYCSTKGTSKEPRHLQLLADLEDSNIFSLIAGRKQYNAPTDHGLCIKPNKVRNETKELRLLCAEDEQTRTCWMTAFRLLKYGMLLYQNYRIPQQRKALLSPFSTPVRSVSENSLVAMDFSGQTGRVIENPAEAQSAALEEGHAWRKRSTRMNILGSQSPLHPSTLSTVIHRTQ | not soluble |
| ANATVKMGSDSGALVFEPSTVTIKAGEEVKWVNNKLSPHNIVFAADGVDADTAAKLSHKGLAFAAGESFTSTFTEPGTYTYYCEPHRGAGMVGKVVVD | soluble |
| GSMALPKDAIPSLSECQCGICMEILVEPVTLPCNHTLCKPCFQSTVEKASLCCPFCRRRVSSWTRYHTRRNSLVNVELWTIIQKHYPRECKLRASGQESEEVADDYQPVRLLSKP | soluble |
| SHMSKAKFDKAVEIVQSLPKDGPIKPTQDEQLYFYKYFKQATVGDVNISRPGLMDFTGKAKWDAWKSVEGTSKEVAYQKYVEKLLEILKKADTEESKKYIAEIEAA | soluble |
| MSLDDLWQTLPDPAELVTVGDLRGMIHTHSTWSDGGASIREMAEATLTLGHEFLGTADHSRAAYYANGLTIERLREQLKEIRELQRAGLPIVAGSEVDILDDGSLDFPDDVLGELDYVVVSVHSNFTLDAARQTERLIRAVSHPLVTVLGHATGRLLLRRPGYALDLDAVLGACEANGTVVEINANAARLDLDWREALRWRERLKFAINTDAHVPGGLRDARYGVMQARKAGLTPAHVVNSLGRAEFLDFVARQRAARGAPGPADREGHHHHHH | not soluble |
| MSLKVLLLDVDGTLLSFETHKVSQSSIDALKKVHDSGIKIVIATGRAASDLHEIDAVPYDGVIALNGAECVLRDGSVIRKVAIPAQDFRKSMELAREFDFAVALELNEGVFVNRLTPTVEQIAGIVEHPVPPVVDIEEMFERKECCQLCFYFDEEAEQKVMPLLSGLSATRWHPLFADVNVAGTSKATGLSLFADYYRVKVSEIMACGDGGNDIPMLKAAGIGVAMGNASEKVQSVADFVTDTVDNSGLYKALKHFGVIEGHHHHHH | soluble |
| MLRSNLCRGSRILARLTTTPRTYTSAATAAAANRGHIIKTYFNRDSTTITFSMEESSKPVSVCFNNVFLRDASHSAKLVTTGELYHNEKLTAPQDIQISEDGKSLVVKWKDGGHHQFPLQFFIDYKGSSFVSPATRKQESRYRPQLWNKRILKDNVKDLLSVSYNEFIDPKDDSKLFQTLVNLQKFGIAFISGTPSSSSEGLTIQKICERIGPIRSTVHGEGTFDVNASQATSVNAHYANKDLPLHTDLPFLENVPGFQILQSLPATEGEDPNTRPMNYFVDAFYATRNVRESDFEAYEALQIVPVNYIYENGDKRYYQSKPLIEHHDINEDNTLLGNYEALIKCINYSPPYQAPFTFGIYDKPSDLNNNLDLNLITTPAKLTERFLFKSFIRGLNLFESHINDFNNQFRLQLPENCCVIFNNRRILHANSLTSSNQQWLKGCYFDSDTFKSKLKFLEEKFPHDK | soluble |
| MGSDKIHHHHHHMIDGDSSPLLRKQSPYPHWQYLHPESGDRLRIVPERGGLVTDWCCNGHELLYLDQERFADPEKSIRGGIPVLFPICGNLPGDLLPLPSGEFILKQHGFARDQPWELQLLEDHSGVKLSFVDSEETRAAYPFSFLLEMVVRPIRNALEIDVNVHNRSQSAMPFSFGLHPYFKVTDLNKVRLEGLPNSCLNHLQMAEAETAIQLAALTEGVDFLTRPAGPVTLVDEASGRSLQLQHENPMDLTVVWTDPPRQMLCLEPWTGPREALISGDRKLEIEAGGQQRLRCSFSINLEKTVRAASC | not soluble |
| MGSDKIHHHHHHMTAIQHIERLARGRSEQAVAVIKNVQQMSNIPMHEMQLALKQLLNCGRIALHFHPDRIDSRGMTVAEGLLRDGQYRSQFETHISNGQLSPELGGPRDHWENQLFGDVYKGTKSRPKYGALDLGMWQDGPAPRFGSCYLLTHASVMARSTFCYLDSYRNPKEKGTLSCFDDVLAALLTESFERHYALGKSDFKPLNVIHYLGHQLNASLLSRFERPLSNNLDHYIEAQIHGDVSLDEDIAMLVADPSFKGTDIGASLSKICDRYDIELQYHDGFSLHTAQIPSDFRGPTMPSQANRIAIEDRVDAYAIGVAARDLYHSPQHWRDRGNRAQVAHELKLLWHVLVKYGAVQ | not soluble |
| MGSDKIHHHHHHVAKSIAGGVRPGIIIDIEHRLLKQIIVGKQKAAASMFDDLDRELENDANKLAIERDAVFERLSKQIQARQVYEAVSKQLITTVNSTLDNQLASPELLIQHSGINASQMLMLELLQQKNLDLSRLRLLIADLPWLARDLTNMVNSPSFRHKRQQRSDVKVTEIKLVLNFIGVENLRLLIPYYCLRNWLPTGHANLLWTTRKLWRYAMVTGIAAKALAQLNEQDMATAYTSSLLYQLGVSVVLKNGAKVYESIWGNWLREASASRDKELHDAVLATEFPAEDIYQQVLQHAHTLNWRLPELLDFSASGLTQTQRELDTCLSYSELSTEAALVARASCYAKVLMLDEMRLISPKEKQMMFDYYQLSEQEQIRLKGQNYRKLDLY | not soluble |
| MSLNRAFRREQYARMVALSEPLIADYLGVRLPEPVSRIFVFDRREWLEANIVSFSQLFRPIEEMYEKNGGGRGALGVLMNDVSSKLLGVQIGGLLGYLAQRVLGQYDLSLLSAEATGGSLYFVEPNIARVQQQLGLSDEDFRLWITLHEMTHAFEFEAYPWVRTYFRELLEQNFALVSGQMLSSGNSLVDMLMRLLQGEGHHHHHH | not soluble |
| MGSDKIHHHHHHMSTIGSDLYNSLGLTTSSKVAKKEDALGQADFLKLMTEQLQHQDPLKPMENSAFLGQLAQFSTVQGIGDLNTKVGNFSDSMNSDQVLKGAALVGHNVLVPSAQVAIDATGSAKGVVAATSAGFVNFEITDANGTFVKQLSVPASAAGEVSFAWDGTDANGNRMAAGKYGITATQTDTAGAKSKLATYVDAPVDSVTIGSDGLYLNLTGLGTSPLANVLRVS | not soluble |
| QTINKIDLQALEESQIDWAKYQPHQAVVLKARKQLRDHQQTALNATAAGLNDAERGKLIMACGTGKTFTSLKIAERLAGKGKRVLFLVPSLSLLSQTLTEWTQESETPLHSFAVCSDSDVGKKRKADEDTVQVFTHELRYPATTKADRLAAEMLKRHDAEHMSVVFSTYHSIDVISRAQHEYDLAAFDLVICDEAHRTTGATFDDDDESTFVRIHDVDYIRAIKRLYMTA | not soluble |
| GPLGSASAAASGKEGVEITYGSAIKLMHEKTKFRLHSHDVPYGSGSGQQSVTGFPGVVDSNSYWIVKPVPGTTEKQGDAVKSGATIRLQHMKTRKWLHSHLHASPISGNLEVSCFGDDTNSDTGDHWKLIIEGSGKTWKQDQRVRLQHIDTSGYLHSHDKKYQRIAGGQQEVCGIREKKADNIWLAAEGVYLPLNESSK | soluble |
| MAHHHHHHMDMNFGFCNDAFFEQGNRSTDKEDIEELKKGESNEITKKGNNELGEEKELPKELCVPVTIKLLLSKMMSHEEFKIHDFQISGIIVFGKVCRIKELASAIIFEICDYTGNIEAKYNKDAKNEKVKDHIEGIKVNDHIKVVGVVYSPESKTEQIQISISYINKVEDWVSYFSYFTSDVIYCYLKLLKLKNIYTPNGVNNEDKPWSHVTLDTYYNQLDDIDTDIIKYLHTTSEKYANQQDIFEHLKKYHSEMNIKKSLTKLIEQYDLAQYEDIISIP | not soluble |
| MAHHHHHHMASFNSLGSGAGDSAEAVTRLQEVLRDICATERRQEKTWLNVQPCVLNAVKLLATTAQVYAERVRQLEDVLQRLQQYTTVLVRDREVKEERYRLDAAAHREEADELWKRLLRLEAQQQEPSLQIDQRASEAFKASCKVAVEARVAPLQQELQGLRHRLKALTLSRPYSSHYNRHVRSSSVASNSSALTMRDHYYAGSDGVAASQHHHHSAASSSSTSSLLSLASSTASSLDRHEQYPRRGRIETTSAPAFTPRALASATAAASPSTQRMMREVQRLRRQWQHFLQSVPAALAQGKGSCRAGLRRRDISGSPSRRLSRLTSKGGRRDLTGGLSDVTRANGEGMESIRGSSPQPFYVPAHHPPSSSPTDAVLPKYSSGPTRARSGARATESSTALPASGRRVRWYWLGDAHSHFSTAVRRAENDFAAAKPLSERPQPALSGVSPALPWTECHAFDGRTDCWYSLGTWPTHRRHLREVERAVEEGASRNSGDVSLGWLKWTLSLVSWPDTSTMLVHRAGIYMVRVCLVRHCASASLCSGAGRAESAGHDCGSGGALALCMNGVAVAGLREVVTHALLYTHPATSPADSAAPWWVTRGRSRSTCAYAGNYCSAVDGAAHSPACASPGGSPSRRRFHRDIADATQRQRPCCEPAQLHTNTLTACLFLPAGATLQVRCRGLHNTKTIHEAFCELEYVV | not soluble |
